Test [1] can be described thus: Competitive ELISA of purified antibodies on E1-OVA (55), amphetamine and methamphetamine cross reactivity. The format is binding. As for the experimental part: (§1) Competitive ELISA was used to assess the presence of anti-Ecstasy-class antibodies in animal sera, hybridoma supernatants, and monoclonal antibody (mAb) samples as well as to estimate the level of antibody cross reactivity to amphetamine (Amph) and methamphetamine (mAmph). Antisera and antibody samples were used at the dilution giving a response of about OD=1 at 650 nm (OD650 nm) in an indirect ELISA. Hybridoma supernatants were diluted 1:2 in PBS. (±)-MDMA, (±)-MDA, (±)-amphetamine, and (±)-methamphetamine were used as inhibitors (Cerilliant Corporation, Round Rock, TX). Microtiter ELISA plates were coated and blocked as described above for indirect ELISA. The inhibitors were serially diluted in PBS. 25 μL of the diluted inhibitor was mixed with 25 μL of fixed appropriate antiserum or antibody sample dilution. The mixture was incubated over the E1-OVA (55) solid phase for 1 h. The plates were washed as described above and the bound antibodies were detected with anti-rabbit or anti-mouse IgG HRP-conjugates and TMB substrate as described above.
(§2) The anti-ecstasy class mAbs were purified from clarified and filtered hybridoma culture supernatants on a recombinant Protein A Sepharose Fast Flow (GE Life Sciences, Boston USA), dialyzed against PBS containing 0.02% sodium azide and stored at 4° C. The purified mAbs were tested for MDA and MDMA reactivity as well as amphetamine (Amph) and methamphetamine (mAmph) cross reactivity in a competitive assay.
On the technique in general: An ELISA detects its analyte on a solid surface through an enzyme-linked reagent.

Another test has as its system E1-OVA (55). Kind of test: ELISA binding of hybridoma supernatant to E1-OVA (55) coated plates, without inhibitor. Conditions: hybridoma supernatant mixed with PBS alone. Here is the method: All ELISA steps were performed at rt. Wells of a Nunc Maxi-Sorp™ flat-bottom ELISA plates (ThermoFisher Scientific, Waltham, MA) were coated with 50 μL E1-OVA (55), E2-OVA (65), and E3-OVA (72) at a concentration of 1 μg/mL in PBS for 1 h. The plates were flicked dried and remaining binding sites were blocked with 200 μL per well of blocking solution (0.5% casein, 0.05% (v/v) Tween 20 in PBS) for one hour. Plates were washed six times with MilliQ water containing 0.05% (v/v) Tween 20 on Biotek 405 LS plate washer equipped with microplate Biostacker 3 (Biotek, Winooski, VT). 50 μL of serially diluted antibody samples (serial dilutions of serum, hybridoma supernatant, or monoclonal antibodies in PBS) were added to each well and incubated for one hour. Unbound antibodies were removed by washing as described above, and 50 μL of secondary goat anti-rabbit IgG HRP or goat anti-mouse IgG (Fc)-HRP conjugate (ThermoFisher Scientific, USA), diluted 1:3,000 in the blocking solution was added to each well for detection bound rabbit or mouse antibody, respectively. Plates were incubated for one hour, washed and 100 μL of TMB substrate (Moss, Pasadena, MD) was added for 15 min to determine bound peroxidase. Optical density (OD) of the samples at 650 nm was measured using an ELISA plate reader (Molecular Devices LLC., San Jose, CA). The titer of each serum sample was designated as the maximum dilution that yielded at least twice the absorbance of the same dilution of the nonimmune control serum.
(§3) The supernatants were screened in a competitive ELISA for the presence of anti-ecstasy compound monoclonal antibodies (mAbs) as follows. 25 μL of the hybridoma supernatant was mixed with equal volume of PBS alone or containing 20 μg/mL inhibitor (MDA or MDMA) were incubated for 1 h in the wells of E1-OVA (55) coated ELISA plates. The plates were washed and the presence of bound mAbs were detected using goat anti-mouse IgG (Fc)-HRP conjugate and TMB substrate as described above. The level of inhibition of mAb/E1-OVA (55) binding in the presence of the inhibitor was estimated using a Percent (%) Inhibition calculated by the below formula:
[formula] • where “OD650 nm w/o Inhibitor” is the binding response of the antibody sample diluted in PBS alone (with no inhibitor), and the “OD650 nm with Inhibitor” is the binding response of the same antibody sample in the presence of 10 μg/mL of inhibitor (i.e., MDA or MDMA). […]

Test [2] is described as follows: Competitive ELISA screening of hybridoma supernatants on E1-OVA (55), inhibitor MDMA. The conditions noted are these: for E1-OVA (55) Binding, OD650 nm +MDMA: hybridoma supernatant in the presence of 10 μg/mL MDMA; for % Inhibition by 10 μg/mL of MDMA: inhibition of mAb/E1-OVA (55) binding. The test is classed as binding. Here is the method: as §1, §3
(§4) [formula] • where “OD650 nm w/o Inhibitor” is the binding response of the antibody sample diluted in PBS alone (with no inhibitor), and the “OD650 nm with Inhibitor” is the binding response of the same antibody sample in the presence of 10 μg/mL of inhibitor (i.e., MDA or MDMA).

Test [3] is described as follows: Competitive ELISA screening of hybridoma supernatants on E1-OVA (55), inhibitor MDA. The conditions noted are these: for E1-OVA (55) Binding, OD650 nm +MDA: hybridoma supernatant in the presence of 10 μg/mL MDA; for % Inhibition by 10 μg/mL of MDA: inhibition of mAb/E1-OVA (55) binding. The format is binding. Here is the method:
as §1, §3, §4

Test [4] is described as follows: Competitive ELISA of purified antibodies on E1-OVA (55), MDMA and MDA reactivity. The test is classed as binding. The conditions noted are these: 10,000-0.1 ng/mL range of drug concentration. As for the experimental part:
as §1, §2

A short description of test [5]: Prototype EMIT ecstasy assay, cross-reactivity with methamphetamine. The format is biochemical. Conditions: conjugate Compound 58; negative urine pool.
Test [6] is described as follows: Prototype EMIT ecstasy assay, cross-reactivity with amphetamine. The test is classed as biochemical. Conditions: conjugate Compound 58; negative urine pool.

B1: 178K 1B2 mAb: mouse monoclonal antibody raised against E1-KLH (56); IgG2b, κ; heavy chain SEQ ID NO 84, light chain SEQ ID NO 108 (antibody)
heavy: MNFGLSLIFLALILKGVQCEVQLVESGGDLVKPGGSLKLSCAASGFTFTNYVMSWVRQTPDKRLEWVATINSGGRYAYYPDSVKGRFTISRDNAKNTLYLQMSSLKSEDTAMYYCAGGNNLDYWGQGTTLTVSSAKTTPPSVYPLAPGCGDTTGSSVTLGCLVKGYFPESVTVTWNSGSLSSSVHTFPALLQSGLYTMSSSVTVPSSTWLSQTVTCSVAHPASSTTVDKKLEPSGPISTIKPCPPCKECHKCPAPNLEGGPSVFIFPPNIKDVLMISLTPKVTCVVVDVSEDDPDVQISWFVNNVEVHTAQTQTHREDYNSTIRVVSALPIQHQDWMSGKEFKCKVNNKDLPSPIERTISKIKGLVRAPQVYILPPPAEQLSRKDVSLTCLVVGFNPGDISVEWTSNGHTEENYKDTAPILDSDGSYFIYSKLNMKTSKWEKTDSFSCNVRHEGLKNNYLKKTISRSPGK
light: MRFSAQLLGLLVLWIPGSTADIVMTQAAFSNPVTLGTSASISCRSSKSLLQRNGITYLYWYLQKPGQSPQLLIYRLSNLASGVPDRFSSSGSGTDFTLRISRVEAEDVGVYYCGQDLELPYTFGGGTKLEIKRADAAPTVSIFPPSSEQLTSGGASVVCFLNNFYPKDINVKWKIDGSERQNGVLNSWTDQDSKDSTYSMSSTLTLTKDEYERHNSYTCEATHKTSTSPIVKSFNRNEC
With B1, in test [1], the “cross reactivity in the presence of 1,000 ng/ml of Amph or mAmph” value was “do not show any significant cross reactivity”. Further, the “E1-OVA (55) Binding, OD650 nm w/o inhib” value in the test on E1-OVA (55) is 4.000 OD650 nm. Besides, in test [2], the “E1-OVA (55) Binding, OD650 nm +MDMA” value turned out to be 0.667 OD650 nm and the “% Inhibition by 10 μg/mL of MDMA” value is on record as 83%. For the same molecule, in test [3], the “E1-OVA (55) Binding, OD650 nm +MDA” value was determined as 0.730 OD650 nm and the “% Inhibition by 10 μg/mL of MDA” value came to 82%. Further, the “relative sensitivity to MDMA and MDA in competitive ELISA” value in test [4] was “bind MDMA stronger than MDA”.

B2: 178K 2B7 mAb: mouse monoclonal antibody raised against E1-KLH (56); IgG2b, κ; heavy chain SEQ ID NO 87, light chain SEQ ID NO 111 (antibody)
heavy: MNFGLSLIFLALILKGVQCEVQLVESGGDLVRPGGSLKLSCASSGFIFSNYVMSWVRQTPDKRLEWVATINSGGRFTYYPDSVKGRFTISRDNAKNTLFLQMNSLKPEDTAIYYCAGGNNLDYWGQGTTLTVSSAKTTPPSVYPLAPGCGDTTGSSVTLGCLVKGYFPESVTVTWNSGSLSSSVHTFPALLQSGLYTMSSSVTVPSSTWLSQTVTCSVAHPASSTTVDKKLEPSGPISTIKPCPPCKECHKCPAPNLEGGPSVFIFPPNIKDVLMISLTPKVTCVVVDVSEDDPDVQISWFVNNVEVHTAQTQTHREDYNSTIRVVSALPIQHQDWMSGKEFKCKVNNKDLPSPIERTISKIKGLVRAPQVYILPPPAEQLSRKDVSLTCLVVGFNPGDISVEWTSNGHTEENYKDTAPILDSDGSYFIYSKLNMKTSKWEKTDSFSCNVRHEGLKNNYLKKTISRSPGK
light: MRFSAQLLGLLVLWIPGSTADIVMTQAEFSNPVTLGTSASISCRSSKSLLQRSGITYLYWYLQKPGQSPQLLIYRMSNLASGVPDRFSSSGSGTDFTLRISRVEAEDVGVYYCGQDMELPYTFGGGTKLEIKRADAAPTVSIFPPSSEQLTSGGASVVCFLNNFYPKDINVKWKIDGSERQNGVLNSWTDQDSKDSTYSMSSTLTLTKDEYERHNSYTCEATHKTSTSPIVKSFNRNEC
With B2, the “Concentrations (μg/mL) of Structurally Related Compounds Equivalent to 500 ng/mL MDMA Cutoffs, (+/−) mAmph” value in test [5] lay in the range of 50 to 60 µg/mL. In addition, the “cross reactivity in the presence of 1,000 ng/ml of Amph or mAmph” value in test [1] is given as “do not show any significant cross reactivity”. The “Concentrations (μg/mL) of Structurally Related Compounds Equivalent to 500 ng/mL MDMA Cutoffs, (+/−) Amph” value in test [6] was 40 to 45 µg/mL. Moreover, in the test on E1-OVA (55), the “E1-OVA (55) Binding, OD650 nm w/o inhib” value amounted to 3.497 OD650 nm. Besides, in test [2], the “E1-OVA (55) Binding, OD650 nm +MDMA” value is given as 0.374 OD650 nm and the “% Inhibition by 10 μg/mL of MDMA” value was found to be 89%. In addition, in test [3], the “E1-OVA (55) Binding, OD650 nm +MDA” value is recorded as 0.429 OD650 nm and the “% Inhibition by 10 μg/mL of MDA” value was 88%. In addition, the “relative sensitivity to MDMA and MDA in competitive ELISA” value in test [4] is “bind MDMA stronger than MDA”.
